Measurements as given in patent US20220306715A1 (SHATTUCK LABS, published 2022).

Target: IL-6
Assay: cell-based or functional assay

IL-6, sequence (P05231 30-212): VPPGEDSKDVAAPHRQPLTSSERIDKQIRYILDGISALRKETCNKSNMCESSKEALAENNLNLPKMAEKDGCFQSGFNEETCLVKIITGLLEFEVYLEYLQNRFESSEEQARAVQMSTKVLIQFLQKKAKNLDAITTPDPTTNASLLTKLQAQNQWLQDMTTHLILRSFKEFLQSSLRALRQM

B1: human IL-6R-Fc-IL-35 chimeric protein (Fc fusion)
chain 1: ELLDPCGYISPESPVVQLHSNFTAVCVLKEKCMDYFHVNANYIVWKTNHFTIPKEQYTIINRTASSVTFTDIASLNIQLTCNILTFGQLEQNVYGITIISGLPPEKPKNLSCIVNEGKKMRCEWDGGRETHLETNFTLKSEWATHKFADCKAKRDTPTSCTVDYSTVYFVNIEVWVEAENALGKVTSDHINFDPVYKVKPNPPHNLSVINSEELSSILKLTWTNPSIKSVIILKYNIQYRTKDASTWSQIPPEDTASTRSSFTVQDLKPFTEYVFRIRCMKEDGKGYWSDWSEEASGITYEDRPSKAPSFWYKIDPSHTQGYRTVQLVWKTLPPFEANGKILDYEVTLTRWKSHLQNYTVNATKLTVNLTNDRYLATLTVRNLVGKSDAAVLTIPACDFQATHPVMDLKAFPKDNMLWVEWTTPRESVKKYILEWCVLSDKAPCITDWQQEDGTVHRTYLRGNLAESKCYLITVTPVYADGPGSPESIKAYLKQAPPSKGPTVRTKKVGKNEAVLEWDQLPVDVQNGFIRNYTIFYRTIIGNETAVNVDSSHTEYTLSSLTSDTLYMVRMAAYTDEGGKDGPEFTFTTPKFAQGEIEGSGSRKGGKRGSKYGPPCPPCPAPEFLGGPSVFLFPPKPKDQLMISRTPEVTCVVVDVSQEDPEVQFNWYVDGVEVHNAKTKPREEQFNSTYRVVSVLTVLHQDWLSGKEYKCKVSSKGLPSSIEKTISNATGQPREPQVYTLPPSQEEMTKNQVSLTCLVKGFYPSDIAVEWESNGQPENNYKTTPPVLDSDGSFFLYSRLTVDKSRWQEGNVFSCSVLHEALHNHYTQKSLSLSLGKDEGGEDGSGSRNLPVATPDPGMFPCLHHSQNLLRAVSNMLQKARQTLEFYPCTSEEIDHEDITKDKTSTVEACLPLELTKNESCLNSRETSFITNGSCLASRKTSFMMALCLSSIYEDLKMYQVEFKTMNAKLLMDPKRQIFLDQNMLAVIDELMQALNFNSETVPQKSSLEEPDFYKTKIKLCILLHAFRIRAVTIDRVMSYLNAS
chain 2: LAPRRCPAQEVARGVLTSLPGDSVTLTCPGVEPEDNATVHWVLRKPAAGSHPSRWAGMGRRLLLRSVQLHDSGNYSCYRAGRPAGTVHLLVDVPPEEPQLSCFRKSPLSNVVCEWGPRSTPSLTTKAVLLVRKFQNSPAEDFQEPCQYSQESQKFSCQLAVPEGDSSFYIVSMCVASSVGSKFSKTQTFQGCGILQPDPPANITVTAVARNPRWLSVTWQDPHSWNSSFYRLRFELRYRAERSKTFTTWMVKDLQHHCVIHDAWSGLRHVVQLRAQEEFGQGEWSEWSPEAMGTPWTESRSPPAENEVSTPMQALTTNKDDDNILFRDSANATSLPVQDSSSVPLPGSGSDEGGEDGSKYGPPCPPCPAPEFLGGPSVFLFPPKPKDQLMISRTPEVTCVVVDVSQEDPEVQFNWYVDGVEVHNAKTKPREEQFNSTYRVVSVLTVLHQDWLSGKEYKCKVSSKGLPSSIEKTISNATGQPREPQVYTLPPSQEEMTKNQVSLTCLVKGFYPSDIAVEWESNGQPENNYKTTPPVLDSDGSFFLYSRLTVDKSRWQEGNVFSCSVLHEALHNHYTQKSLSLSLGKRKGGKRGSGSRKGPPAALTLPRVQCRASRYPIAVDCSWTLPPAPNSTSPVSFIATYRLGMAARGHSWPCLQQTPTSTSCTITDVQLFSMAPYVLNVTAVHPWGSSSSFVPFITEHIIKPDPPEGVRLSPLAERQLQVQWEPPGSWPFPEIFSLKYWIRYKRQGAARFHRVGPIEATSFILRAVRPRARYYVQVAAQDLTDYGELSDWSLPATATMSLGK
  EC50 of induction of apoptosis in IL-6 dependent DS-1 cells cultured 24 hours with IL-6 (caspase 3/7 luciferase assay): 14.1 nM
